According to the supplement of paper PMC7877785:
± gives the uncertainty stated by the source.

Test: self-splicing fitness, log relative to wild type (ln ratio); higher = more splicing; Tetrahymena group I intron in knt gene, E. coli kanamycin selection, DiMSum; sequences stand for … in CUCUCU…GGAGGGAAAAGUUAUCAGGCAUGCACCUGGUAGCUAGUCUUUAAACCAAUAGAUUGCAUCGGUUUAAAAGGCAAGACCGUCAAAUUGCGGGAAAGGGGUCAACAGCCGUUCAGUACCAAGUCUCAGGGGAAACUUUGAGAUGGCCUUGCAAAGGGUAUGGUAAUAAGCUGACGGACAUGGUCCUAACCACGCAGCCAAGUCCUAAGUCAACAGAUCUUCUGUUGAUAUGGAUGCAGUUCACAGACUAAAUGUCGGUCGGGGAAGAUGUAUUCUUCUCAUAAGAUAUAGUCGGACCUCUCCUUAAUGGGAGCUAGCGGAUGAAGUGAUGCAACACUGGAGCCGCUGGGAACUAAUUUGUAUGCGAAAGUAUAUUGAUUAGUUUUGGAGUACUCGUGGUCG
In short: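 The eight P1ex-region nucleotides of an intron in the knt kanamycin-resistance gene on pET-22b(+) were all randomised and the library put into E. coli BL21(DE3). Six replicate transformations were grown overnight at 37°C or 30°C on LB agar with or without 25 μg/mL kanamycin, together with 100 μg/mL carbenicillin, 50 μM IPTG and 0.2% rhamnose. Colonies were pooled and amplicon-sequenced on an Illumina HiSeq 2500. Fitness from DiMSum is the error-weighted combination of wild-type-normalised replicate fold changes, kanamycin over none.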

Row | Sequence | self-splicing fitness (ln) (30 °C) | self-splicing fitness (ln) (37 °C)
1 | GCGGAGCAAUAUUACGUGAU | -2.01 ± 0.47 | -1.42 ± 0.3
2 | CUGAAGCAAUAUUACGGAAG | -1.37 ± 0.096 | -0.636 ± 0.12
3 | CUUGAGCAAUAUUACGUCGG | -2.62 ± 0.11 | -1.04 ± 0.12
4 | CAGUAGCAAUAUUACGACAC | -2.36 ± 0.22 | -1.28 ± 0.23
5 | CUCAAGCAAUAUUACGUUUU | -3.35 ± 0.14 | -2.34 ± 0.18
6 | UCUCAGCAAUAUUACGUGGU | -1.7 ± 0.1 | -2.48 ± 0.16
7 | CUUGAGCAAUAUUACGUUUU | -3.92 ± 0.28 | -3.44 ± 0.3
8 | CUUGAGCAAUAUUACGACUG | -0.383 ± 0.084 | 0.0311 ± 0.12
9 | CUUAAGCAAUAUUACGUCCA | -2.93 ± 0.48 | -2.34 ± 0.46
10 | AGUGAGCAAUAUUACGGCUU | -2.43 ± 0.17 | -1.72 ± 0.25
11 | GAUAAGCAAUAUUACGCACG | -1.16 ± 0.13 | -0.4 ± 0.17
12 | GGCUAGCAAUAUUACGCUUG | -3.03 ± 0.19 | -2.19 ± 0.19
13 | UAUGAGCAAUAUUACGAUCU | -1.76 ± 0.23 | -2 ± 0.31
14 | CCGCAGCAAUAUUACGACAG | -0.485 ± 0.063 | 0.0928 ± 0.088
15 | CAGCAGCAAUAUUACGGUUG | -3.04 ± 0.11 | -2.62 ± 0.23
16 | CUGUAGCAAUAUUACGAUCG | 0.206 ± 0.16 | 0.548 ± 0.21
17 | GACCAGCAAUAUUACGCACA | -0.51 ± 0.05 | -0.0966 ± 0.07
18 | UUGGAGCAAUAUUACGUAGU | -1.95 ± 0.25 | -2.6 ± 0.49
19 | GACAAGCAAUAUUACGGUUA | -0.281 ± 0.079 | -0.186 ± 0.077
20 | GAGUAGCAAUAUUACGGUUG | -2.7 ± 0.2 | -1.06 ± 0.2
21 | AUUCAGCAAUAUUACGCAGU | -2.18 ± 0.17 | 0.359 ± 0.15
22 | GGGUAGCAAUAUUACGUGUA | -0.214 ± 0.12 | -0.897 ± 0.14
23 | AGAUAGCAAUAUUACGAUUG | -1.65 ± 0.11 | -1.81 ± 0.18
24 | UCUUAGCAAUAUUACGGAUA | -2.68 ± 0.25 | -2.18 ± 0.24

Row | Sequence | self-splicing fitness (ln) (30 °C) | self-splicing fitness (ln) (37 °C)
25 | AUAUAGCAAUAUUACGAACU | -1.38 ± 0.22 | 0.111 ± 0.21
26 | GCAAAGCAAUAUUACGCAGA | – | -2.76 ± 0.3
27 | ACCGAGCAAUAUUACGUGGA | -2.84 ± 0.15 | -2.99 ± 0.18
28 | AUCAAGCAAUAUUACGCGGA | -2.07 ± 0.1 | -1.94 ± 0.088
29 | UUCAAGCAAUAUUACGACUU | -3.86 ± 0.15 | -2.65 ± 0.18
30 | AUACAGCAAUAUUACGAUUA | -1.18 ± 0.11 | -0.625 ± 0.11
31 | CGCCAGCAAUAUUACGGCAA | -0.604 ± 0.087 | -0.186 ± 0.088
32 | AGUAAGCAAUAUUACGCAUA | -2.31 ± 0.25 | -1.38 ± 0.15
33 | CCCGAGCAAUAUUACGACUU | -3.24 ± 0.26 | -3.01 ± 0.25
34 | GAGCAGCAAUAUUACGGUCG | -2 ± 0.17 | -2.28 ± 0.17
35 | GGCUAGCAAUAUUACGCGGA | -0.936 ± 0.22 | -0.393 ± 0.22
36 | CUGGAGCAAUAUUACGCUGU | – | -3.04 ± 0.48
37 | GUGCAGCAAUAUUACGCGUC | -3.39 ± 0.3 | -1.4 ± 0.21
38 | GACAAGCAAUAUUACGACGU | -0.139 ± 0.065 | -0.167 ± 0.074
39 | GGUUAGCAAUAUUACGUAUA | -1.45 ± 0.14 | -1.24 ± 0.19
40 | AUUAAGCAAUAUUACGGUGU | -2.11 ± 0.088 | -0.653 ± 0.11
41 | ACACAGCAAUAUUACGUCAC | -3.22 ± 0.16 | -2.86 ± 0.27
42 | UUAGAGCAAUAUUACGUUGU | -4.16 ± 0.31 | -2.4 ± 0.19
43 | CGAAAGCAAUAUUACGCAUG | -1.56 ± 0.1 | -0.368 ± 0.11
44 | UUAUAGCAAUAUUACGCUGU | -3.59 ± 0.37 | -1.06 ± 0.37
45 | GAAUAGCAAUAUUACGCGCA | -0.334 ± 0.066 | -0.494 ± 0.074
46 | UUGCAGCAAUAUUACGUCUU | -0.0818 ± 0.069 | 0.289 ± 0.077
47 | GAAGAGCAAUAUUACGCAUG | -3.45 ± 0.47 | -2.36 ± 0.33
48 | GAGUAGCAAUAUUACGAAAU | -2.68 ± 0.21 | -1.37 ± 0.23
